Results reported in paper PMC11551748.

Target: Exportin-1 (XPO1), endogenous (UniProt O14980)
Assay: co-IP (GFP pulldown) and western blot, semi-quantification
Conditions: stable U2OS cell lines, parent: est. 0.60, read off a plot

UniProt O14980, sequence (O14980 whole entry): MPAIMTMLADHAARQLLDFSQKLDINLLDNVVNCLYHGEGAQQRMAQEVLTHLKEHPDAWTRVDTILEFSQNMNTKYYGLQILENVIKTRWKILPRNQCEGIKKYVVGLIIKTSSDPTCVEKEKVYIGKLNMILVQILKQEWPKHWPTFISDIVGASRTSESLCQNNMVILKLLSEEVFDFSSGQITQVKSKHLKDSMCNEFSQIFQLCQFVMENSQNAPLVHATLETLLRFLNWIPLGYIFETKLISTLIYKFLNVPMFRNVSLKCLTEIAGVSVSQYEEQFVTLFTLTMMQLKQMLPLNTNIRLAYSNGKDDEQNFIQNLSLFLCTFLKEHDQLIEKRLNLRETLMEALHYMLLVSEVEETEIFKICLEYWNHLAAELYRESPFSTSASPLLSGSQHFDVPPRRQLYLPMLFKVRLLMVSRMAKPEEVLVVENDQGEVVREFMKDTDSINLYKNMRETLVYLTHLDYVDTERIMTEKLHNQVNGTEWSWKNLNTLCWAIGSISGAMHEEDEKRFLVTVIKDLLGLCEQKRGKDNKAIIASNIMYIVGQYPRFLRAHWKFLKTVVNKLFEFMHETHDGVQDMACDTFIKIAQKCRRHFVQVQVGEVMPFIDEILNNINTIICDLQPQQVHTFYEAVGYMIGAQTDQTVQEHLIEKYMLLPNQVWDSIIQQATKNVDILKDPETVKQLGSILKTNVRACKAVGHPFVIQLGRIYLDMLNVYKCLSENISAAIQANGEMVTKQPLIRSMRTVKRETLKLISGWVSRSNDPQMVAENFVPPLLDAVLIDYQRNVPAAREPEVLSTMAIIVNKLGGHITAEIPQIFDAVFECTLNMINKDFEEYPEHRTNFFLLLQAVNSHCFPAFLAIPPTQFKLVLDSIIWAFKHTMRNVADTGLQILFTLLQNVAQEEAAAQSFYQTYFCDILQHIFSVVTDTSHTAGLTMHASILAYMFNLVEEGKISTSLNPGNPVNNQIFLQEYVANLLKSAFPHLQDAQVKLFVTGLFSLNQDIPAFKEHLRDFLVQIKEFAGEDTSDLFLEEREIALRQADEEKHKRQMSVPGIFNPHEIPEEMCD

| Substance | response (band intensity relative to WT -ETO) |
| --- | --- |
| TIRR-GFP WT (lentivirus-integrated, U2OS) (from UniProt Q9BRJ7) RBM | 0.9 |
| TIRR-GFP WT (lentivirus-integrated, U2OS) (from UniProt Q9BRJ7) NES3 | 3.2 |
| TIRR-GFP WT (lentivirus-integrated, U2OS) (from UniProt Q9BRJ7) NES2 | 0.3 |
| TIRR-GFP WT (lentivirus-integrated, U2OS) (from UniProt Q9BRJ7) K10E | 0.27 |
| TIRR-GFP WT (lentivirus-integrated, U2OS) (from UniProt Q9BRJ7) NES1 | 2.1 |
| TIRR-GFP WT (lentivirus-integrated, U2OS) (from UniProt Q9BRJ7) NES4 | 1.3 |
